Tested on: B834(DE3) or CAG18491 hosts with pQE15/pREP4 or pQE15-MRS/pREP4
Assay: Translational activity: mDHFR synthesis, statements covering several bacterial hosts (with pQE15 or pQE15-MRS)
Format: cell-based, E. coli
Conditions: each of CAG18491/pQE15/pREP4 and CAG18491/pQE15-MRS/pREP4
Method: Methionine analogues were synthesized via alkylation of diethylacetamidomalonate, as previously described (As described in Example I, infra; J. C. M. van Hest, D. A. Tirrell, FEBS Lett. 1998, 428, 68-70). Cultures of B834(DE3)/pQE15-MRS/pREP4 or B834(DE3)/pQE15/pREP4 or CAG18491/pQE15-MRS/pREP4 or CAG18491/pQE15/pREP4 in M9AA media were grown to an optical density of 0.90, and the cells were sedimented by centrifugation. The M9AA medium was prepared by supplementing sterile M9 medium with […] of each of the amino acids, 1 mM MgSO4, 0.2 wt % glucose, 1 mg/ml thiamine chloride, and […] calcium chloride. The antibiotics ampicillin and kanamycin were added at concentrations of 200 mg/l and 35 mg/l, respectively.
Cells were washed three times with M9 salts and resuspended to an optical density of 0.90 in M9 test media containing 19 amino acids plus 1) neither methionine nor analogue (negative control); 2) methionine (60 mg/liter, positive control); or 3) an analogue of interest (60 mg/liter). To test the effect of increasing the level of supplementation of the analogues, a set of experiments was also conducted in which the medium was supplemented with 500 mg/liter of methionine or the amino acid analogue. Expression of mDHFR was induced by addition of 0.4 mM isopropyl β-D-thiogalactopyranoside (IPTG), and protein synthesis was monitored after 4.5 hours.

B1: mDHFR: mouse dihydrofolate reductase with N-terminal hexahistidine sequence, test protein (protein, UniProt P00375 2-187, looked up)
Dihydrofolate reductase: VRPLNCIVAVSQNMGIGKNGDLPWPPLRNEFKYFQRMTTTSSVEGKQNLVIMGRKTWFSIPEKNRPLKDRINIVLSRELKEPPRGAHFLAKSLDDALRLIEQPELASKVDMVWIVGGSSVYQEAMNQPGHLRLFVTRIMQEFESDTFFPEIDLGKYKLLPEYPGVLSEVQEEKGIKYKFEVYEKKD
modifications: N-terminal His6 tag
yield of mDHFR in M9AA medium: approximately 30 mg

— patent US7723070B2, “Overexpression of aminoacyl-tRNA synthetases for efficient production of engineered proteins containing amino acid analogues” (California Institute of Technology, priority 2000, dated 2010)
